By tissue uptake is commonly meant the share of the injected amount in each gram of the tissue.

Molecules are shown by their SMILES.

The data set can be described thus: Biodistribution of radiometal-DOTA-BBN conjugates in CF1 normal mice. The settings on record: 1 hour post-injection; for tissue uptake dose at 1 h / dose excreted at 1 h / tissue uptake at 1 h: CF-1, mouse, in vivo, iv, total radioactivity; for tissue uptake dose at 1 h / dose excreted at 1 h: Avg % ID; for dose excreted at 1 h: Urine; for tissue uptake at 1 h: Avg % ID/gm.

Take `CSCC[C@H](NC(=O)[C@H](CC(C)C)NC(=O)[C@H](Cc1c[nH]cn1)NC(=O)CNC(=O)[C@@H](NC(=O)[C@H](C)NC(=O)[C@H](Cc1c[nH]c2ccccc12)NC(=O)[C@H](CCC(N)=O)NC(=O)CCCCCCCCCCNC(=O)CN1CCN(CC(=O)O)CCN(CC(=O)O)CCN(CC(=O)O)CC1)C(C)C)C(N)=O` [111In-DOTA-11-Aun-BBN[7-14]NH2, metal not drawn]: the dose excreted at 1 h is 53.3 ± 0.9%. Moreover, the tissue uptake dose at 1 h (Blood) is 0.79 ± 0.2 %ID. In addition, the tissue uptake dose at 1 h (Carcass) is 7.35 ± 1.57 %ID. For the same molecule, the tissue uptake dose at 1 h (Kidney) was determined as 1.07 ± 0.17 %ID. Also, where the note is “L. Intestine”, the tissue uptake dose at 1 h is 5.54 ± 2.42 %ID and the tissue uptake at 1 h stood at 4.34 ± 1.34 %ID/g. Moreover, for the setting “Liver”, the tissue uptake dose at 1 h came to 2.44 ± 0.5 %ID and the tissue uptake at 1 h was 1.22 ± 0.25 %ID/g. In addition, where the note is “Pancreas”, the tissue uptake dose at 1 h was 11.6 ± 1.14 %ID and the tissue uptake at 1 h was 26 ± 3.46 %ID/g. For the setting “S. Intestine”, the tissue uptake dose at 1 h turned out to be 17.8 ± 1.4 %ID and the tissue uptake at 1 h worked out at 11.1 ± 2.07 %ID/g. Besides, where the note is “Spleen”, the tissue uptake dose at 1 h was determined as 0.19 ± 0.04 %ID and the tissue uptake at 1 h came to 1.15 ± 0.38 %ID/g. Moreover, under “Stomach”, the tissue uptake dose at 1 h was found to be 0.53 ± 0.11 %ID and the tissue uptake at 1 h is 1.05 ± 0.25 %ID/g.
Regarding `CSCC[C@H](NC(=O)[C@H](CC(C)C)NC(=O)[C@H](Cc1cnc[nH]1)NC(=O)CNC(=O)[C@@H](NC(=O)[C@H](C)NC(=O)[C@H](Cc1c[nH]c2ccccc12)NC(=O)[C@H](CCC(N)=O)NC(=O)CCCCCCCNC(=O)CN1CCN(CC(=O)O)CCN(CC(=O)O)CCN(CC(=O)O)CC1)C(C)C)C(N)=O` [149Pm-DOTA-8-Aoc-BBN[7-14]NH2] [listing 1 of 2 here], the tissue uptake at 1 h (Stomach) is 1.16 ± 0.59 %ID/g.
For `CSCC[C@H](NC(=O)[C@H](CC(C)C)NC(=O)[C@H](Cc1c[nH]cn1)NC(=O)CNC(=O)[C@@H](NC(=O)[C@H](C)NC(=O)[C@H](Cc1c[nH]c2ccccc12)NC(=O)[C@H](CCC(N)=O)NC(=O)CCCCNC(=O)CN1CCN(CC(=O)O)CCN(CC(=O)O)CCN(CC(=O)O)CC1)C(C)C)C(N)=O` [177Lu-DOTA-5-Ava-BBN[7-14]NH2] [metal not drawn], the “Avg % ID, Blood” value was 0.35 ± 0.31 % ID; the “Avg % ID, Carcass” value was 2.77 ± 0.75 % ID; the “Avg % ID, Heart” value came out at 0.04 ± 0.05 % ID; the “Avg % ID, Kidney” value was found to be 0.69 ± 0.33 % ID. The “Avg % ID, L. Intestine” value came out at 3.52 ± 1.37 % ID; the “Avg % ID, Liver” value stood at 0.14 ± 0.06 % ID; the “Avg % ID, Lung” value is reported as 0.08 ± 0.15 % ID; the “Avg % ID, Muscle” value is reported as 0.09 ± 0.12 % ID. For the same molecule, the “Avg % ID, Pancreas” value was 3.78 ± 1.09 % ID; the “Avg % ID, S. Intestine” value amounted to 3.80 ± 1.87 % ID; the “Avg % ID, Spleen” value was determined as 0.18 ± 0.12 % ID; the “Avg % ID, Stomach” value is reported as 0.73 ± 1.33 % ID. The “Avg % ID/gm, Blood” value was 0.22 ± 0.19 % ID/gm; the “Avg % ID/gm, Heart” value is 0.34 ± 0.35 % ID/gm; the “Avg % ID/gm, Kidney” value is on record as 2.03 ± 1.02 % ID/gm; the “Avg % ID/gm, L. Intestine” value is on record as 3.78 ± 1.23 % ID/gm. Also, the “Avg % ID/gm, Liver” value came out at 0.09 ± 0.04 % ID/gm; the “Avg % ID/gm, Lung” value is listed as 0.47 ± 0.84 % ID/gm; the “Avg % ID/gm, Muscle” value is listed as 0.67 ± 0.90 % ID/gm; the “Avg % ID/gm, Pancreas” value is 16.41 ± 1.38 % ID/gm. In addition, the “Avg % ID/gm, S. Intestine” value was determined as 2.55 ± 1.31 % ID/gm; the “Avg % ID/gm, Spleen” value came out at 1.26 ± 0.69 % ID/gm; the “Avg % ID/gm, Stomach” value is 1.48 ± 2.25 % ID/gm.
For the molecule `CSCC[C@H](NC(=O)[C@H](CC(C)C)NC(=O)[C@H](Cc1cnc[nH]1)NC(=O)CNC(=O)[C@@H](NC(=O)[C@H](C)NC(=O)[C@H](Cc1c[nH]c2ccccc12)NC(=O)[C@H](CCC(N)=O)NC(=O)CCNC(=O)CN1CCN(CC(=O)O)CCN(CC(=O)O)CCN(CC(=O)O)CC1)C(C)C)C(N)=O` [177Lu-DOTA-β-Ala-BBN[7-14]NH2] [metal not drawn], the “Avg % ID, Blood” value is reported as 0.24 ± 0.25 % ID; the “Avg % ID, Carcass” value was 2.73 ± 1.08 % ID; the “Avg % ID, Heart” value is 0.05 ± 0.08 % ID; the “Avg % ID, Kidney” value worked out at 0.63 ± 0.14 % ID. The “Avg % ID, L. Intestine” value was determined as 0.36 ± 0.17 % ID; the “Avg % ID, Liver” value amounted to 0.21 ± 0.09 % ID; the “Avg % ID, Lung” value came to 0.04 ± 0.06 % ID; the “Avg % ID, Muscle” value stood at 0.11 ± 0.18 % ID. In addition, the “Avg % ID, Pancreas” value was determined as 0.32 ± 0.07 % ID; the “Avg % ID, S. Intestine” value amounted to 0.64 ± 0.20 % ID; the “Avg % ID, Spleen” value amounted to 0.05 ± 0.04 % ID; the “Avg % ID, Stomach” value is recorded as 0.13 ± 0.09 % ID. Further, the “Avg % ID/gm, Blood” value is 0.16 ± 0.17 % ID/gm; the “Avg % ID/gm, Heart” value is listed as 0.43 ± 0.70 % ID/gm; the “Avg % ID/gm, Kidney” value was determined as 1.88 ± 0.37 % ID/gm; the “Avg % ID/gm, L. Intestine” value amounted to 0.45 ± 0.19 % ID/gm. Besides, the “Avg % ID/gm, Liver” value was 0.15 ± 0.06 % ID/gm; the “Avg % ID/gm, Lung” value is reported as 0.23 ± 0.33 % ID/gm; the “Avg % ID/gm, Muscle” value is given as 0.94 ± 1.54 % ID/gm; the “Avg % ID/gm, Pancreas” value is given as 1.44 ± 0.26 % ID/gm. Moreover, the “Avg % ID/gm, S. Intestine” value is listed as 0.49 ± 0.10 % ID/gm; the “Avg % ID/gm, Spleen” value turned out to be 0.31 ± 0.31 % ID/gm; the “Avg % ID/gm, Stomach” value came to 0.34 ± 0.18 % ID/gm.
Consider `CSCC[C@H](NC(=O)[C@H](CC(C)C)NC(=O)[C@H](Cc1c[nH]cn1)NC(=O)CNC(=O)[C@@H](NC(=O)[C@H](C)NC(=O)[C@H](Cc1c[nH]c2ccccc12)NC(=O)[C@H](CCC(N)=O)NC(=O)CCCCNC(=O)CN1CCN(CC(=O)O)CCN(CC(=O)O)CCN(CC(=O)O)CC1)C(C)C)C(N)=O` [111In-DOTA-5-Ava-BBN[7-14]NH2, metal not drawn], for which the dose excreted at 1 h was 81.3 ± 1.32%. Moreover, for the setting “Blood”, the tissue uptake dose at 1 h came out at 0.45 ± 0.14 %ID and the tissue uptake at 1 h was determined as 0.2 ± 0.07 %ID/g. Besides, where the note is “Kidney”, the tissue uptake dose at 1 h came to 0.75 ± 0.14 %ID and the tissue uptake at 1 h stood at 1.84 ± 0.44 %ID/g. For the setting “L. Intestine”, the tissue uptake dose at 1 h came to 2.74 ± 0.8 %ID and the tissue uptake at 1 h worked out at 3.07 ± 0.86 %ID/g. Further, under “Pancreas”, the tissue uptake dose at 1 h amounted to 5.57 ± 0.99 %ID and the tissue uptake at 1 h stood at 15.8 ± 2.54 %ID/g.
Consider `CSCC[C@H](NC(=O)[C@H](CC(C)C)NC(=O)[C@H](Cc1cnc[nH]1)NC(=O)CNC(=O)[C@@H](NC(=O)[C@H](C)NC(=O)[C@H](Cc1c[nH]c2ccccc12)NC(=O)[C@H](CCC(N)=O)NC(=O)CCCCCCCNC(=O)CN1CCN(CC(=O)O)CCN(CC(=O)O)CCN(CC(=O)O)CC1)C(C)C)C(N)=O` [149Pm-DOTA-8-Aoc-BBN[7-14]NH2] [listing 2 of 2 here], for which the “Avg % ID, Blood” value was found to be 0.23 ± 0.26 % ID; the “Avg % ID, Carcass” value is given as 10.30 ± 1.84 % ID; the “Avg % ID, Heart” value is reported as 0.00 ± 0.01 % ID; the “Avg % ID, Kidney” value turned out to be 1.55 ± 0.47 % ID. The “Avg % ID, L. Intestine” value was 4.43 ± 2.37 % ID; the “Avg % ID, Lung” value was found to be 0.02 ± 0.04 % ID; the “Avg % ID, Muscle” value is on record as 0.01 ± 0.02 % ID; the “Avg % ID, Pancreas” value turned out to be 7.34 ± 3.51 % ID. Also, the “Avg % ID, S. Intestine” value was 7.84 ± 2.15 % ID; the “Avg % ID, Spleen” value was determined as 0.24 ± 0.06 % ID; the “Avg % ID, Stomach” value is listed as 0.66 ± 0.35 % ID; the “Avg % ID/gm, Blood” value was 0.12 ± 0.13 % ID/gm. The “Avg % ID/gm, L. Intestine” value was found to be 4.14 ± 2.14 % ID/gm; the “Avg % ID/gm, Liver” value was determined as 0.19 ± 0.12 % ID/gm; the “Avg % ID/gm, Lung” value was determined as 0.09 ± 0.14 % ID/gm; the “Avg % ID/gm, Muscle” value is listed as 0.09 ± 0.21 % ID/gm. The “Avg % ID/gm, Pancreas” value is 28.29 ± 13.26 % ID/gm and the “Avg % ID/gm, S. Intestine” value is reported as 12.56 ± 16.70 % ID/gm.
`CSCC[C@H](NC(=O)[C@H](CC(C)C)NC(=O)[C@H](Cc1cnc[nH]1)NC(=O)CNC(=O)[C@@H](NC(=O)[C@H](C)NC(=O)[C@H](Cc1c[nH]c2ccccc12)NC(=O)[C@H](CCC(N)=O)NC(=O)CN1CCN(CC(=O)O)CCN(CC(=O)O)CCN(CC(=O)O)CC1)C(C)C)C(N)=O` [111In-DOTA-0-BBN[7-14]NH2, metal not drawn]: the dose excreted at 1 h turned out to be 96.95 ± 0.37%. The tissue uptake dose at 1 h (Blood) came to 0.22 ± 0.07 %ID. Moreover, under “Heart”, the tissue uptake dose at 1 h was 0.01 %ID and the tissue uptake at 1 h was found to be 0.05 ± 0.02 %ID/g. Besides, under “Kidney”, the tissue uptake dose at 1 h was 0.57 ± 0.02 %ID and the tissue uptake at 1 h came out at 1.24 ± 0.14 %ID/g. For the same molecule, for the setting “Liver”, the tissue uptake dose at 1 h is 0.17 ± 0.02 %ID and the tissue uptake at 1 h was 0.09 ± 0.01 %ID/g. Also, for the setting “Lung”, the tissue uptake dose at 1 h came to 0.03 %ID and the tissue uptake at 1 h came to 0.13 ± 0.03 %ID/g. Also, where the note is “Muscle”, the tissue uptake dose at 1 h came to 0.01 %ID. In addition, under “Pancreas”, the tissue uptake dose at 1 h is 0.07 ± 0.01 %ID and the tissue uptake at 1 h was 0.2 ± 0.04 %ID/g. Also, for the setting “Spleen”, the tissue uptake dose at 1 h was found to be 0.01 %ID and the tissue uptake at 1 h stood at 0.08 ± 0.02 %ID/g.

For the origin of these results see patent US20060067886A1, “Gastrin receptor-avid peptide conjugates” (priority 1997, published 2006).
